Measured values: patent publication EP4628508A1 (Biodlink Biopharm Co., Ltd., dated 2025)
Numbering of substitutions follows the chain as printed.

B1: PR302951 (antibody, human IgG1, kappa, V domains shown)
VH: EVQLLESGGGLVQPGGSLRLSCAASRFTFSTYAMSWVRQAPGKGLEWVSSISGSGFNTYYADSVKGRFTISSDSSKNTLYLQMNSLRAEDTAVYYCAKDRQWLVSSFDYWGQGTLVTVSS
VL: DIQMTQSPSSLSASVGDRVTITCQASQDISNYLNWYQQKPGKAPKLLIYDASNLETGVPSRFSGSGSGTDFTFTISSLQPEDIATYYCQQYDNLITFGQGTRLEIKR
notes: IgG1; also called PR302951 (IgG1)
B2: PR302702 (antibody, human IgG1, kappa, V domains shown)
VH: B1 VH with R26G, S35T, G55D, S72R, S74I, R100Q, Q101E, S105R, D108H, Y109H
VL: DIQMTQFPSSLFAFVGDRVTITCQASQDISNYLNWYQQKAGKAPKLLINDASNLETGVPSRFSGSGFGTDFTFTISSLQPEDFATYYCQQYENLPTFGGGTKVEIKR
notes: IgG1; also called PR302702 (IgG1)
B3: PR302949 (antibody, human IgG1, kappa, V domains shown)
VH: B1 VH with R26G, T31S, G55D, N57S, S72R, S74T, Y109F, T114A
VL: B1 VL
notes: IgG1; also called PR302949 (IgG1)
B4: PR301366 (antibody, V domains shown)
VH: EVQLLESGGGLVQPGGSLRLSCAASGFTFSNYAMNWVRQAPGKGLEWVSVISVSGGSTYYADSVKGRFTISRDNSKNTLYLQMNSLRAEDTAVYYCAKDYYYDSGSYYDSFFDYWGQGTLVTVSS
VL: not shown
notes: also called control antibody PR301366 (Five Prime: WO2020014132)
B5: PR302950 (antibody, human IgG1, kappa, V domains shown)
VH: QVQLQESGPGLVKPSGTLSLTCAVSGGSISSSNWWSWVRQPPGKGLEWIGEVYHSGSTNYNPSLKSRVTISVDKSQNQFSLKLTSVTAADTAVYYCARVTGNKDYYYYDLDVWGQGTTVTVSS
VL: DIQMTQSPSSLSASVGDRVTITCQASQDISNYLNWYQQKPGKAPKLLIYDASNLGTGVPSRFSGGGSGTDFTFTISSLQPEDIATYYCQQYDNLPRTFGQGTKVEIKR
notes: IgG1; also called PR302950 (IgG1)
B6: PR302934 (antibody, human IgG1, kappa, V domains shown)
VH: QVQLQQWGAGLLKPSETLSLTCAVYGGSFSGYYWSWIRQTLGKGLEWIGEVSHSGGTNYNPSLKSRVTISVDTSKNQFSLKLSSVTAADTAVYYCARSPYYGDYMYVFDIWGQGTMVTVSS
VL: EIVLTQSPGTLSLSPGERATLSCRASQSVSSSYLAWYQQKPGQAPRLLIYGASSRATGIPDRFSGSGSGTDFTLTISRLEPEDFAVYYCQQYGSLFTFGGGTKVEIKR
notes: IgG1; also called PR302934 (IgG1)
B7: PR302927 (antibody, human IgG1, kappa, V domains shown)
VH: EVQLLESGGGLVQPGGSLRLSCAASGFTFSSYAMSWVRQAPGKGLEWVSTINHIGDSTYYADSVKGRFTISRDNSKNTLYLQMNSLRAEDTAVYYCAKDQWFGVFDYWGQGTLVTVSS
VL: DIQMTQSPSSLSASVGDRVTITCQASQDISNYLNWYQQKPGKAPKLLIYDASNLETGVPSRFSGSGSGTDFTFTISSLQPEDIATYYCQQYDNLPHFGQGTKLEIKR
notes: IgG1; also called PR302927 (IgG1)
B8: PR302264-3 (antibody, human IgG4 S228P, kappa, V domains shown)
VH: QVQLQQWGAGLLKPSETLSLTCAVYGGSLSGYYWSWIRQPPGKGLEWIGEITHSGGTNYNPSLKSRVTISVPTSKNQFSLKLTSVTAADTAVYYCARGQQQLDWYFDLWGRGTLVTVSS
VL: EIVMTQSPATLSVSPGERATLSCRASQNIYSHLVWYQQKPGQAPRLLIYGASTRATGIPARFSGSGSGTEFTLTITSLQSEDFTVYYCQQYNDWPPITFGQGTRLEIRR
notes: PTM variant of PR302264, IgG4; also called PR302264-3 (IgG4)
B9: PR304683 (antibody, V domains shown)
VH: QVQLVQSGAEVKKPGASVKVSCKASGYTFTDYYINWVRQAPGQGLEWMGNVNPNDGGTTYNQKFKGRVTMTTDTSTSTAYMELRSLRSDDTAVYYCARREIYFYGTIYYYAMDYWGQGTLVTVSS
VL: DIQLTQSPSFLSASVGDRVTITCRASESVDYYGNSFMYWYQQKPGKAPKLLIYFASNLESGVPSRFSGSGSGTEFTLTISSLQPEDFATYYCQQNNEDPWTFGGGTKVEIK
notes: also called Control antibody PR304683 (NGM: WO2021127200); NGM707
B10: PR302264-2 (antibody, human IgG4 S228P, kappa, V domains shown)
VH: B8 VH with T52A
VL: B8 VL
notes: PTM variant of PR302264, IgG4; also called PR302264-2 (IgG4)
B11: PR302282 (antibody, human IgG1, kappa, V domains shown)
VH: QVQLVESGGTVVQSGRSLRLSCAASGFTFSSYGMHWVRQAPGKGLEWVAGMWYDGNYKYYADSVKGRFTISRDNSKNTLSLQMNSLRAEDTAVYYCARDSPIGVFDYWGQGTLVTVSS
VL: B1 VL
notes: IgG1; also called PR302282 (IgG1)
B12: PR302259 (antibody, human IgG1, kappa, V domains shown)
VH: EVQLLESGGGLVQPGGSLRLSCAVSGFTFSSYAMSWVRQAPGKGLEWVSAISDNAGSTYYADSVKGRFTISRDNSKNTLHLQMNSLRAEDTAVYSCAKERQWLVLGVMDAWGQGASVTVSS
VL: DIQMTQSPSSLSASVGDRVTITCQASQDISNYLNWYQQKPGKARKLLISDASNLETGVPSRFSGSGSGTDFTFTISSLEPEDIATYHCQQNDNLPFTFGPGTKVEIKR
notes: IgG1; also called PR302259 (IgG1)
B13: PR001795 (antibody, V domains shown)
VH: EVQLQQWGAGLLKPSETLSLTCAVYGGSFSGYYWSWIRQPPGKGLEWIGEINHAGSTNYNPSLKSRVTISVDTSKNQFSLKLSSVTAADTAVYYCARLPTRWVTTRYFDLWGRGTLVTVSS
VL: ESVLTQPPSVSGAPGQRVTISCTGSSSNIGAGYDVHWYQQLPGTAPKLLIYGDSNRPSGVPDRFSVSKSGASASLAITGLQAEDEADYYCQSFDNSLSAYVFGGGTQLTVL
notes: also called control antibody PR001795 (Merck: US20180298096); MK-4830
B14: PR302261 (antibody, human IgG1, kappa, V domains shown)
VH: EVQLLESGGGLVQSGGSLRLSCAASGFTFSSYAMSWVRQAPGKGLGWVSTISGSGGSAYYADSVKGRFTVSRDNSKKTLYLQMNSLRAEDTAVYFCAILSGDDAFDIWGQGTMVTVSS
VL: DVVMTQSPLSLPVTPGEPASISCRSSQSLLRGNGYNYLDWYLQKPGQSPQLLIYLGSNRASGVPDRFSGSGSGTDFTLKISRVEAEDVGIFYCMQALQSPLTFGGGTKVEIKR
notes: IgG1; also called PR302261 (IgG1)
B15: PR302264 (antibody, human IgG1, kappa, V domains shown)
VH: B8 VH with T52N
VL: B8 VL
notes: IgG1; also called PR302264 (IgG1)

Target: T1, human ILT4 expressed on the surface of CHO cells (CHO-huILT4) (human, UniProt Q8N423 22-597)
T1 construct: CHO cells infected with lentivirus lenti-huILT4; also called CHO-ILT4; CHO-huILT4 cells
Test: flow cytometry on CHO-huILT4 cells

T1 sequence (Q8N423 other isoform, or with tags, fused parts or gaps limits assumed): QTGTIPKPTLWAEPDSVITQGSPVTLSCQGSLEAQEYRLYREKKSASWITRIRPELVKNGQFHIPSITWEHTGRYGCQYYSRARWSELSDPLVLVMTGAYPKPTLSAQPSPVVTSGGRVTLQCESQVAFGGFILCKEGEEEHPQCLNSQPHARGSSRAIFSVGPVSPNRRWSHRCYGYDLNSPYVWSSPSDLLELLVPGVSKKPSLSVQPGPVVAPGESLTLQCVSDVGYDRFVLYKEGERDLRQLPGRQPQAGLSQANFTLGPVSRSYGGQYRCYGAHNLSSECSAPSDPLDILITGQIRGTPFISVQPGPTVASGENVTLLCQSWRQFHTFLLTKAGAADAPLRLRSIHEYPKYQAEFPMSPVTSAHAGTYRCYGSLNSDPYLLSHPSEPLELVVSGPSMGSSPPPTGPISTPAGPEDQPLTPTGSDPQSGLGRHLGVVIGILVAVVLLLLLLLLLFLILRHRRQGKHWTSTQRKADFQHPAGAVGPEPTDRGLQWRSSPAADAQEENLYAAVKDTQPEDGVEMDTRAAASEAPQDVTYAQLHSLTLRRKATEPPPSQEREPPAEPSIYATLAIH

EC50 [nM] | Binder
1.05 | B1
1.58 | B2
0.822 | B3
1.07 | B4
1.09 | B5
1.13 | B6
0.805 | B7

Target: T2, human ILT2-ECD protein (human, UniProt Q8NHL6 24-461)
T2 construct: also called LILRB1 (ILT2)
Test: ELISA, human ILT2-ECD coated at 1 µg/mL

T2 sequence (Q8NHL6 24-461 limits assumed): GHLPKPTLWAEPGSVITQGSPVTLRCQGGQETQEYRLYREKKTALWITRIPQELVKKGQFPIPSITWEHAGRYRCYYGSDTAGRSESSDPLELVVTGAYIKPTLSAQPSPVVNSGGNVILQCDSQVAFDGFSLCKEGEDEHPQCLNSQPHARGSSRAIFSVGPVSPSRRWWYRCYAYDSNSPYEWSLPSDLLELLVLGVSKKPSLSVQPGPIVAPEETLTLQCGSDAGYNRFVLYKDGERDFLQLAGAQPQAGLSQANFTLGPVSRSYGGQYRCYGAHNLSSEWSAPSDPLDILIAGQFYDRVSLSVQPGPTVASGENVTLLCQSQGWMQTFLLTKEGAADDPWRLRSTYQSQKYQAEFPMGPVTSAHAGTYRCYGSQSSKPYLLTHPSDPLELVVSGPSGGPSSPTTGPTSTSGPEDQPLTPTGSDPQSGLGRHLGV

binding result | Binder
binds | B8

Target: T3, human ILT4-ECD protein (human, UniProt Q8N423 22-460)
T3 construct: also called HuILT4; LILRB2 (ILT4)
Test: ELISA, protein coated at 1 µg/mL, antibody at 100 nM, OD450

T3 sequence (Q8N423 other isoform, or with tags, fused parts or gaps limits assumed): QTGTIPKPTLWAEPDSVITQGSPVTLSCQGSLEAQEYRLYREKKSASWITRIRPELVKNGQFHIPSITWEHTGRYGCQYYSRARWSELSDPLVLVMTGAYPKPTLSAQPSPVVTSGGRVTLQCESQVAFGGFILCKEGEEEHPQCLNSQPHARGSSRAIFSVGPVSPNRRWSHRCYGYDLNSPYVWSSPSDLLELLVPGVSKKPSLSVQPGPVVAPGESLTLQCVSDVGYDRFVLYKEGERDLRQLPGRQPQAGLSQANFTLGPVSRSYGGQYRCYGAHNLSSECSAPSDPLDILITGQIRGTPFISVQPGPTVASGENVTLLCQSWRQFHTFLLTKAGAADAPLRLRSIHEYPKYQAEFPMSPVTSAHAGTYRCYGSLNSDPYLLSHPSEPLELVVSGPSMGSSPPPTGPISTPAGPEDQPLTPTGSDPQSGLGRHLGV

binding result | Binder
binds | B9

Target: T2, human ILT2-ECD protein
Test: as above

binding result | Binder
binds | B6
binds | B9
binds | B10

Target: T4, human LILRA1 (R&D System, Cat: 9226-T4-050) (human, UniProt O75019 17-461)
T4 construct: Bought protein; also called LILRA1 (LIR6); LIR6
Test: as above

T4 sequence (O75019 17-461 limits assumed): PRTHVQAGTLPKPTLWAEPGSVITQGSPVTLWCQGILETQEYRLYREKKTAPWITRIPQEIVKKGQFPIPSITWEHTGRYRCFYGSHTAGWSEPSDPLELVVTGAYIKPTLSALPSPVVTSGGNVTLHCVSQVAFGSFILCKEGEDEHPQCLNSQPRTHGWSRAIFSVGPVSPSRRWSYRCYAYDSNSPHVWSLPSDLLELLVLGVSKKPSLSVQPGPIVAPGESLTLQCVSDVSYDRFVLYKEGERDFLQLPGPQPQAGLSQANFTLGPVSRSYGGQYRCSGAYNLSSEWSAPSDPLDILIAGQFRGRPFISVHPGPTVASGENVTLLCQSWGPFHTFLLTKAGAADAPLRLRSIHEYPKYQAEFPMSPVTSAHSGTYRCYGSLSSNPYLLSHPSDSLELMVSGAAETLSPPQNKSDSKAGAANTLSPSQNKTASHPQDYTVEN

binding result | Binder
binds | B6
binds | B9
binds | B10

Target: T5, human LILRA3 (R&D System, Cat: 9517-T4-100) (human, UniProt Q8N6C8 24-439)
T5 construct: Bought protein; also called LILRA3 (LIR4)
Test: as above

T5 sequence (Q8N6C8 24-439 limits assumed): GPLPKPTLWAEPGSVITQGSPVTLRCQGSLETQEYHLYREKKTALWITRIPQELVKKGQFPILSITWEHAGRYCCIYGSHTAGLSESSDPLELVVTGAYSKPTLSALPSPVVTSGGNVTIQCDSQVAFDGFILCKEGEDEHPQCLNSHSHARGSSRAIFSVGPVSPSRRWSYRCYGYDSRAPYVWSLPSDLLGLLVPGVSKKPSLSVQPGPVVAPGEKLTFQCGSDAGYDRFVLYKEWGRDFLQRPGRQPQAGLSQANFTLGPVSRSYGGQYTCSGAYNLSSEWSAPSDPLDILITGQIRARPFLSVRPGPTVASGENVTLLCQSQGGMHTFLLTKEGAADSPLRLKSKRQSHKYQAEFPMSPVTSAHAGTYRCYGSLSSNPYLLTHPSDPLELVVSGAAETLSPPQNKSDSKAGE

binding result | Binder
binds | B9

Target: T6, human LILRA4 (R&D System, Cat: 8914-T4-050) (human, UniProt P59901 24-446)
T6 construct: Bought protein; also called LILRA4 (ILT7); ILT7
Test: as above

T6 sequence (P59901 24-446 limits assumed): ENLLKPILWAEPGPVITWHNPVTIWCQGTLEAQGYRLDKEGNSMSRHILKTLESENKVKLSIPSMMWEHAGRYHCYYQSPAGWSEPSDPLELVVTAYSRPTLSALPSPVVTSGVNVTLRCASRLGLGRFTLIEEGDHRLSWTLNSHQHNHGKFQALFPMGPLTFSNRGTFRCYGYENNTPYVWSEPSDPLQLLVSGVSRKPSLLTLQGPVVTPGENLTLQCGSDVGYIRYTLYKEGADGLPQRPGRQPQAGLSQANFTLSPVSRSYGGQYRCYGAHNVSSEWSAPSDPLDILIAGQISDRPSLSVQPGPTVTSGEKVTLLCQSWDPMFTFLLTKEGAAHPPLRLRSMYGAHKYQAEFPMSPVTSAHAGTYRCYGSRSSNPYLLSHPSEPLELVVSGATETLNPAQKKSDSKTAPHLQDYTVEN

binding result | Binder
binds | B6

Target: T7, human LILRA6 (R&D System, Cat: 9088-T4-050) (human, UniProt Q6PI73 24-447)
T7 construct: Bought protein; also called LILRA6 (ILT8); ILT8
Test: as above

T7 sequence (Q6PI73 24-447 limits assumed): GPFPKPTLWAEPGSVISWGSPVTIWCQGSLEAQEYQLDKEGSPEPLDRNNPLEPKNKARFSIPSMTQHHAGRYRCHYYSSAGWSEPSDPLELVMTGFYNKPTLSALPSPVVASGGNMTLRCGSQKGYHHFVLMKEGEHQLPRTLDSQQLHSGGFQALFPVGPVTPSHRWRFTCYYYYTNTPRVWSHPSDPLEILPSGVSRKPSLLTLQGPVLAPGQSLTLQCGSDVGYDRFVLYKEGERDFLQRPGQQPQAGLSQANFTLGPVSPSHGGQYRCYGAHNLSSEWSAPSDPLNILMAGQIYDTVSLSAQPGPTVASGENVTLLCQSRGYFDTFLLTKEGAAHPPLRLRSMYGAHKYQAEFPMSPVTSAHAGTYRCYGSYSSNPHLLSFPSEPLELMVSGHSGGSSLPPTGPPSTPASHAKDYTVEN

binding result | Binder
binds | B6

Target: T8, human LILRB3 (R&D System, Cat: 9159-T5-050) (human, UniProt O75022 24-443)
T8 construct: Bought protein; also called LILRB3 (ILT5); ILT5
Test: as above

binding result | Binder
binds | B6

Target: T3, human ILT4-ECD protein
Test: BLI (Octet RED96e), antibody on AHC biosensor, HuILT4 at 100/50/25 nM

Kd [nM] | kon [M⁻¹ s⁻¹] | Binder
0.256 | 915000 | B1
0.124 | 648000 | B11
0.454 | 985000 | B3
< 0.001 | 773000 | B12
0.458 | 694000 | B6
3.52 | 431000 | B13
0.984 | 520000 | B14
0.0767 | 472000 | B10
0.242 | 462000 | B15
0.351 | 454000 | B8
0.884 | 980000 | B7
